The record followed here is patent US20200087354A1.

The assay has as its target Streptococcus pyogenes (Spy) dCas9 (Streptococcus pyogenes) (UniProt Q99ZW2). In words: cell-based or functional assay.

In turn, AcrIIA2 (LMOG_03147) yielded an RFP fluorescence relative to a strain with no guide RNA (dCas9-based repression of a chromosomal RFP reporter in E. coli) of 25%.

Regarding AcrIIA4, the RFP fluorescence relative to a strain with no guide RNA (dCas9-based repression of a chromosomal RFP reporter in E. coli) came to 85%.
